In assay [1] the target is actin-related protein (Arp) 2/3 complex (UniProt P61160). The assay can be described thus: SPR; Arpin variants and dual-tailed peptides against the Arp2/3 complex; who was immobilised was not shown; hArpin as the dimer-enriched population. (In general: In SPR one partner is held on a chip, and binding of the other changes the refractive index at the surface.)
The target of assay [2] is GST-aCT (chimeric protein with Arpin's CT fused to the C-terminus of glutathione S-transferase). The assay can be described thus: SEC; recombinant GST-aCT. Background: SEC sorts molecules by how far they enter the pores of the column.

For the substance “ArpinCT (residues 192–226) (from UniProt Q7Z6K5 192-226) (peptide)”, the Kd (commonly the free concentration of one partner at which half of the binding sites on the other are occupied at equilibrium, for simple one-to-one binding) in assay [1] was determined as 17.8 µM. That is a double-digit micromolar value.

In the case of “GST-aCT (chimeric protein with Arpin's CT fused to the C-terminus of glutathione S-transferase)”, the stoichiometry N (in general, the number of molecules, sites or subunits per partner or assembly) in assay [2] was 2. For the same substance, the Kd in assay [1] came to 2.5 µM.

For the substance “full-length human Arpin (hArpin) (from UniProt Q7Z6K5 1-226) (natural protein)”, the equilibrium dissociation constant (Kd) in assay [1] was 14.1 µM.

The values above are taken from paper PMC13626732.
